Experiment: label from the status in PepcDB records
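Note: failed if final PepcDB status was selected cloned or expressed and not failed if soluble or beyond.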

Sequence	protein production
MKGLRRLVLDVLKPHEPKTIVFALKLSELENVDGVNIHLSEIDQATENIKITILGNNLDYEQIKGVIEDLGGVIHSVDEVVAGKIIVESVKTEQDLEHHHHHH	failed
MKIFVDGDGSPVKETVIEVAVEKALDVVIVTSVDHYSLKDYPENVSFVYVDKGADAADFKIVQLIKKGDLLITQDYGLASLVLPKGVLVLHQLGYQYTKENIDGLLEQRYFSGQIRRKGGRTKGPKPFTDQDRTTFKQALIELVKRSLLEHHHHHH	failed
SGAAAAEADRTLFVGNLETKVTEELLFELFHQAGPVIKVKIPKDKDGKPKQFAFVNFKHEVSVPYAMNLLNGIRLYGRPIKIQFRSGSSHAPQDVSLSYPQHHVGNSSPTSTSPSRYERTMDNMTSSAQIIQRSFSSPENFQRQAVMNSALRQMSYGGKFGSSPLDQSGFSPSVQSHSHSFNQSSSSQWRQGTPSSQRKVRMNSYPYLADRHYSREQRYTDHGSDHHYRGKRDDFFYEDRNHDDWSHDYDNRRDSSRDGKWRSSRH	not failed
ELAWLVDCLAPIFDGLRQPVTVVDPSGRFVYYNRASGLLDGLDPQRALGMHLLQSAPWLAAEQSTLLRCLAEGRPSIDTLQAYVGAGGELLQYRHRAIPLRGRDGCLLGAMEL	failed
MKLYIYDHCPFCVKARMIFGLKNIPVELNVLQNDDEATPTRMIGQKMVPILQKDDSRYLPESMDIVHYVDNLDGKPLLTGKRNPAIEEWLRKVNGYVNQLLLPRFAKSAFDEFSTPAARQYFIRKKEASSGSFDNHLAHSAGLIKKIGDDLRLLDKLIVQPNAVNGELSEDDIHLFPLLRNLTLVAGIHWPTKVADYRDNMAKQTQINLLSSMAI	not failed
TLLLIFSFFVVTIGGLVQIVPLFYLENTIEKVEGVRPYTPLELAGRDIYIREGCYVCHSQMIRPMRDETERYGHYSLAAESMYDHPFQWGSKRTGPDLARVGERYSDEWHVDHLTNPQSVVPESIMPKYGFLSHTVIDGRYIRDLMSVHRIVGVPYSDEMLENAVADFKAQANPDADTDGLLERYGKAAVRNFDGQAELTEMDALISYLQVLGT	failed
QPTIVLDTDYNIIAANTAYQRQFGVAGKPHVGAKCYRVSHQFAVPCDQAGEHCPMRKAHDSRVPERMLHIHHTPRGPEHVDVELRPIIGQDGTVVAYVERLSSVAVASVQPQQKG	failed
MEFPDLTVEIKGPDVVGVNKLAEYEVHVKNLGGIGVPSTKVRVYINGTLYKNWTVSLGPKEEKVLTFNWTPTQEGMYRINATVDEENTVVELNENNNVATFLEHHHHHH	not failed
MRKAYLMESIQPWIEKFIKQAQQQRSQSTKDYPTSYRNLRVKLSFGYGNFTSIPWFAFLGEGQEASNGIYPVILYYKDFDELVLAYGISDTNEPHAQWQFSSDIPKTIAEYFQATSGVYPKKYGQSYYACSQKVSQGIDYTRFASMLDNIINDYKLIFNSGKSVIPPMSKTESYCLEDALNDLFIPETTIETILKRLTIKKNIILQGPPGVGKTFVARRLAYLLTGEKAPQRVNMVQFHQSYSYEDFIQGYRPNGVGFRRKDGIFYNFCQQAKEQPEKKYIFIIDEINRANLSKVFGEVMMLMEHDKRGENWSVPLTYSENDEERFYVPENVYIIGLMNTADRSLAVVDYALRRRFSFIDIEPGFDTPQFRNFLLNKKAEPSFVESLCQKMNELNQEISKEATILGKGFRIGHSYFCCGLEDGTSPDTQWLNEIVMTDIAPLLEEYFFDDPYKQQKWTNKLLGDS	failed
MEALKRKIEEEGVVLSDQVLKVDSFLNHQIDPLLMQRIGDEFASRFAKDGITKIVTIESSGIAPAVMTGLKLGVPVVFARKHKSLTLTDNLLTASVYSFTKQTESQIAVSGTHLSDQDHVLIIDDFLANGQAAHGLVSIVKQAGASIAGIGIVIEKSFQPGRDELVKLGYRVESLARIQSLEEGKVSFVQEVHS	not failed
MKKQRNLRSMAAQAVEQVVEQGQSLSNILPPLQQKVSDKDKALLQELCFGVLRTLSQLDWLINKLMARPMTGKQRTVHYLIMVGLYQLLYTRIPPHAALAETVEGAIAIKRPQLKGLINGVLRQFQRQQEELLAEFNASDARYLHPSWLLKRLQKAYPEQWQSIVEANNQRPPMWLRINRTHHSRDSWLALLDEAGMKGFPHADYPDAVRLETPAPVHALPGFEDGWVTVQDASAQGCMTWLAPQNGEHILDLCAAPGGKTTHILEVAPEAQVVAVDIDEQRLSRVYDNLKRLGMKATVKQGDGRYPSQWCGEQQFDRILLDAPCSATGVIRRHPDIKWLRRDRDIPELAQLQSEILDAIWPHLKTGGTLVYATCSVLPEENSLQIKAFLQRTADAELCETGTPEQPGKQNLPGAEEGDGFFYAKLIKK	failed
MDSITQAALGASIAGAVAGKTLGRSALLTGALLGTLPDLDVVIDYGTAVANFTQHRGFSHSLFILAPLSLLIAWGLWRWKPLISYQRWLALVGLILITHPLLDAFTTYGTQLFWPIGPPVAINSIFIIDPLYTLPLLAGCLAFLYRPPASRTVAAGLLVSSLYLGWTLIAQQIITDRVRPALANAGMEQAALMVQPMPFNTVLWRATAVSAGQRIEVVTGFLDASDELVLERFPRQPELARLVAELPEARRLEWFTGGFLDYQQNGTQITATDIRLGIPGAHPFTFILAETAEDGLQPLASDRLPRPALNRAALPLLWDRMTGQVPVLCLATLSVPNHGNSC	failed
MKILVVSGFLGAGKTTFIRTLAERTKKDFAVMENEYGAVNVDGDLLEQTNDLNIWELTEGCICCSMQNDFATSILTIANTVDPEYLIVEPTGVGMLSKIIENIQKIEYERITLLEPLTILDGTMYDRCMFEFSEICEDQIQSAGRILVSKMEYAAENERCSLKQKLIALNPEAEICVSHYTEQGDDWWASLLTSYLDKEIPMKEERELDLENLGLTEASLQSEQELILFLQGVVSGVFGDICRAKGYLPAGNGWLRFDVTDRTYSVTGIDTMPEAKAIFIGRQLKRNWLREVLQKELYVEVSKRAIRPMRKRSEVLEHHHHHH	failed
MSNSHPLRPFTAVGEIDHVHILSEHIGALLIGEEYGDVTFVVEKKRFPAHRVILAARCQYFRALLYGGMRESQPEAEIPLQDTTAEAFTMLLRYIYTGRATLTDEKEEVLLDFLSLAHKYGFPELEDSTSEYLCTILNIQNVCMTFDVASLYSLPKLTCMCCMFMDRNAQEVLASDGFLSLSKTALLNIVLRDSFAAPEKDIFLALLNWCKHNAKENHAEIMQAVRLPLMSLTELLNVVRPSGLLSPDAILDAIKVRSESRDMDLNYRGMLIPEENIATMKYGAQVVKGELKSALLDGDTQNYDLDHGFSRHPIDDDCRSGIEIKLGQPSIINHIRLLLWDRDSRSYSYFIEVSMDELDWIRVIDHSHYLCRSWQKLYFPARVCRYIRIVGTHNTVNKIFHIVAFECMFTNKAFTLEKGLIAPMENVATIADCASVIEGVSRSRNALLNGDTKNYDWDSGYTCHQLGSGAIVVQLAQPYMIGSIRLLLWDCDDRSYSYYVEVSTNQQQWTMVADRTKVSCKSWQSVTFERQPASFIRIVGTHNTANEVFHCVHFECPEQQSTQKEDSSEEPGTGDLSTPSQQLDPHAPRAPSASSLPPSPGPNLHSPNQQNQ	failed
MPHKLLPWLAIASAMSAFTLQAQPMPDTELLMGSYTQGKSEGIYRFGFNSQTGLIDAKPLQVIKSDNPSWLTLSKDQRHLFAVNENGPGQKDVVGKVSSFAIDPKTRQITPINQVQSRGEEPTHSSLSYDGRYLFVANYAVNPDPGGALTVVPVGKDGTLSEAVQVLPLGPGSKVNSERQLSSHVHLAVPTPDNKYVVSADLGADKLFVYRYDANQAKPLQPAKVPTVQLPGGSGPRHTLFSADGKHAWLVLEMTAQVAVFDYHDGGFKQTQLVDMKNKGVEEKNGGGALHTSPDGKFLYVTNRGDANQVVVFRIDQASGKLEEIQRRSLEGKEPREFAFDPTGKFMLFANQKSNQIVTVRRDPQSGMIGDTVQKFDADSPSYLRFLTEK	failed
MIEENLVEFIEILMLATAVAVTVKFIRLPYTIALVLAGLFVGLAGLLPEVPLSREIVFFIFLPPLLFEAAMNMDLKELRENFGPIALIAFLGVVVTTTVVGFSLNWILGIPLALALIFGAMVSATDPVSVLATFKSISAPKKLSILIEGESVLNDGAAIVVFAIALEMMLKGVFDPLNAALDFAVVCVGGAAVGLAVGYLAYRILAKIDDALVEIAVTIVAAYLGFVLAERFHFSGVIAVVAAGLILGNYGRDFSMSPTTRVIMLDFWSVIVFLVNSIIFILIGVNTHITIFSAWKEILVAIAAVILARAFVVYPVMTYYRFPNLWKHVVFWGGLRGVIPVALALSFGNQLLSAMAFGVVLFSLLLQGISLEIFVKRKFVSESERELEEIIARYIAARSAKFELMKAVEQGRIVEPVAREMLPNLDAEIEELRSKLEEKIRGGMGSKLRKAAVKYVIDAKKSAVVDAMAGGLVSQEVALEIMRELDSKTAELME	failed
